In the RNAGym collection of RNA variant scans (doi:10.7554/elife.90254):

B1: OR4K15 (parent)
chain: GUUAACGGUCAUAGGCCAUGGAAACUAGGAGCACCAUUUCGCUGCCAGUGAAGAAAUGAACAAAGAAAAUCUGGGCCAGGCAGGCAUCAAAAGAAAUAGUCUUGCGCUCAACCAGAAAGUCUGUAAUCAUUUUAAGGGUA

Variants of: B1
Assay: self-cleavage, relative activity (ratio to wild type); higher = more cleavage; in vitro, sequencing; the parent is a self-cleaving ribozyme

Variant | self-cleavage
A55U A67U | 1.6
A55U A67G | 1.12
A56U A114U | 0.04
A56U A114G | 0.36
A54U U87C | 1.34
A55U A59U | 1.92
A56G G79A | 0.1
A54G C112G | 0.01
A56G A66C | 1.76
A56G A66G | 0.93
U57A U70C | 0.48
A54U U108C | 0.01
U57A A69G | 0.95
U57A A69C | 0.34
A55G C85U | 1.27
U57A U127C | 0.65
U57A U127A | 1.95
A54U A134G | 1.32
A54U A135U | 2.01
A55G A96U | 1.11
A56G A117G | 1.3

Variant | self-cleavage
A55G A94C | 1.34
U57C A94G | 1.62
A56G A111G | 0.01
A55G U124A | 0.97
A55G U124C | 0.5
U57C A118G | 0.43
U57C A118U | 0.37
A55U A114U | 0.03
A55U A114G | 0.21
U57A A90G | 0.76
A55G A62U | 1.41
A56G G106U | 0.01
A55U U87C | 1.64
A55U A92G | 1.36
A55U A92U | 2.65
A56G A96U | 1.64
U57A G75A | 0.27
A56G A114C | 0.02
A56G A114U | 0.08
A56G A114G | 0.31
A55G A90G | 0.76

Variant | self-cleavage
A55G A90U | 2.14
A56G C128U | 0.54
A54U A64G | 1.55
U57A A116G | 0.94
U57A A116U | 0.15
A54G A89U | 1.61
A54G A89G | 1.55
U57A U133C | 1.08
A54G G84C | 0.61
U57A A62G | 1.13
A56G A129G | 1.45
A56G A129C | 1.03
A54U U139C | 1.45
A54U U139A | 1.63
A55G A91G | 0.98
A55C G106A | 0.02
A55G A111G | 0.03
A56U C128A | 1.6
U57A A59U | 2.2
U57A A59G | 0.5
A56G A62U | 2.29

Variant | self-cleavage
A55G A82U | 0.22
A55G A82G | 0.83
A55G U108G | 0.03
U57C C76U | 0.13
A56U A110U | 1
A56G U87A | 1.54
A54G A111U | 0.06
A54G A111G | 0.03
A55C A110G | 1.02
U57C G75A | 0.12
A56G A78U | 0.2
A56G A78C | 0.22
A56G A78G | 0.25
A55G A129U | 1.43
A54G C128U | 1.08
U57C A140G | 1.11
U57A A66G | 0.73
A55U U57G | 1.54
A54G U122A | 1.72
A54G U122C | 1
